# Assay results published in patent US20160123962A1 (ALBERT EINSTEIN COLLEGE OF MEDICINE, published 2016).
# T1: human brevican (human, UniProt Q96GW7 23-911, limits assumed)
# T1 construct: Proteoglycan immobilized on the SPR chip
# T1 sequence (looked up): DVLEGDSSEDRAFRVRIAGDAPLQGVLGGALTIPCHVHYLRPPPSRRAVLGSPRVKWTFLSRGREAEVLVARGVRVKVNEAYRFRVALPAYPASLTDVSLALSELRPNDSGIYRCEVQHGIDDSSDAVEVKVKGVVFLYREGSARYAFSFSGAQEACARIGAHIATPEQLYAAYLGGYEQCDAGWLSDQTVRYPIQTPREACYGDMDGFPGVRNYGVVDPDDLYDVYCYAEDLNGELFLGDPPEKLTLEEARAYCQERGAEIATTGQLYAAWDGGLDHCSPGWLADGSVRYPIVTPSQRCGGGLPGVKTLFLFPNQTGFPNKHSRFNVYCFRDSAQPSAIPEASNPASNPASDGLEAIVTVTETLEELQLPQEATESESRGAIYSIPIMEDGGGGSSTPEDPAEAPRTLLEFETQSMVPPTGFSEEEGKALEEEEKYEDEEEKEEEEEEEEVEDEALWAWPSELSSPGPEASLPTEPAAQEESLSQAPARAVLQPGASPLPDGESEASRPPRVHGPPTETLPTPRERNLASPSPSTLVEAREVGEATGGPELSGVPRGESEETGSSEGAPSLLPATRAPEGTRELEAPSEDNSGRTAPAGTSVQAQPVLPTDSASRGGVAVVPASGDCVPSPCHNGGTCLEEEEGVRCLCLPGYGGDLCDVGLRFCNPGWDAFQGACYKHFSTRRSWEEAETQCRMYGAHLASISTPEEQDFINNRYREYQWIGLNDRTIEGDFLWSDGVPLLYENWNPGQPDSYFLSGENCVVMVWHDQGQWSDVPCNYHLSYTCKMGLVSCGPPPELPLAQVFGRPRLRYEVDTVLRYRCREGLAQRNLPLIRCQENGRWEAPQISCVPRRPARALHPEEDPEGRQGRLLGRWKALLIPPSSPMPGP
# B1: human tenascin-R (hTN-R) (other, UniProt Q92752 32-1358, looked up)
# chain: QLEVTTERVQRQSVEEEGGIANYNTSSKEQPVVFNHVYNINVPLDNLCSSGLEASAEQEVSAEDETLAEYMGQTSDHESQVTFTHRINFPKKACPCASSAQVLQELLSRIEMLEREVSVLRDQCNANCCQESAATGQLDYIPHCSGHGNFSFESCGCICNEGWFGKNCSEPYCPLGCSSRGVCVDGQCICDSEYSGDDCSELRCPTDCSSRGLCVDGECVCEEPYTGEDCRELRCPGDCSGKGRCANGTCLCEEGYVGEDCGQRQCLNACSGRGQCEEGLCVCEEGYQGPDCSAVAPPEDLRVAGISDRSIELEWDGPMAVTEYVISYQPTALGGLQLQQRVPGDWSGVTITELEPGLTYNISVYAVISNILSLPITAKVATHLSTPQGLQFKTITETTVEVQWEPFSFSFDGWEISFIPKNNEGGVIAQVPSDVTSFNQTGLKPGEEYIVNVVALKEQARSPPTSASVSTVIDGPTQILVRDVSDTVAFVEWIPPRAKVDFILLKYGLVGGEGGRTTFRLQPPLSQYSVQALRPGSRYEVSVSAVRGTNESDSATTQFTTEIDAPKNLRVGSRTATSLDLEWDNSEAEVQEYKVVYSTLAGEQYHEVLVPRGIGPTTRATLTDLVPGTEYGVGISAVMNSQQSVPATMNARTELDSPRDLMVTASSETSISLIWTKASGPIDHYRITFTPSSGIASEVTVPKDRTSYTLTDLEPGAEYIISVTAERGRQQSLESTVDAFTGFRPISHLHFSHVTSSSVNITWSDPSPPADRLILNYSPRDEEEEMMEVSLDATKRHAVLMGLQPATEYIVNLVAVHGTVTSEPIVGSITTGIDPPKDITISNVTKDSVMVSWSPPVASFDYYRVSYRPTQVGRLDSSVVPNTVTEFTITRLNPATEYEISLNSVRGREESERICTLVHTAMDNPVDLIATNITPTEALLQWKAPVGEVENYVIVLTHFAVAGETILVDGVSEEFRLVDLLPSTHYTATMYATNGPLTSGTISTNFSTLLDPPANLTASEVTRQSALISWQPPRAEIENYVLTYKSTDGSRKELIVDAEDTWIRLEGLLENTDYTVLLQAAQDTTWSSITSTAFTTGGRVFPHPQDCAQHLMNGDTLSGVYPIFLNGELSQKLQVYCDMTTDGGGWIVFQRRQNGQTDFFRKWADYRVGFGNVEDEFWLGLDNIHRITSQGRYELRVDMRDGQEAAFASYDRFSVEDSRNLYKLRIGSYNGTAGDSLSYHQGRPFSTEDRDNDVAVTNCAMSYKGAWWYKNCHRTNLNGKYGESRHSQGINWYHWKGHEFSIPFVEMKMRPYNHRLMAGRKRQSLQF
# notes: Extracellular matrix protein used as analyte in SPR
# How the values were obtained:
# [1] = biological target: human PTP-ζ (protein tyrosine phosphatase receptor type zeta) of U251 human glioblastoma cells (human) (UniProt P23471); test: cell-based or functional assay
# [2] = biological target: T1, human brevican; test: SPR, brevican immobilized on the chip, hIL-34 as analyte; IL-34 with human brevican
# Protocol: (§1) SPR binding analyses were performed at 25° C. on Biacore instruments. […] The protein A surface was regenerated with 10 mM Glycine-HCl, pH 1.5. […] All sensorgrams were double-referenced.
# [3] = biological target: T2, human CSF-1R extracellular domain fused to immunoglobulin Fc domain (hCSF-1R-ECD-Fc) (human, UniProt P07333 20-517); test: SPR (Biacore T100), hCSF-1R-ECD-Fc captured on Protein A, hIL-34 as analyte; hIL-34 on hCSF-1R-ECD-Fc
# T2 construct: extracellular domain; not shown: immunoglobulin Fc domain
# Protocol: as §1
# [4] = biological target: B1; test: SPR (Biacore 3000), IL-34 immobilized on CM5 chip, hTN-R as analyte, steady state model; IL-34 with hTN-R
# Protocol: as §1
# [5] = biological target: T3, human PTP-ζ extracellular domain fused to immunoglobulin Fc domain (hPTP-ζ-ECD-Fc) (human, UniProt P23471 25-1636); test: SPR (Biacore T100), hPTP-ζ-ECD-Fc captured on Protein A, hIL-34 as analyte, steady state model; hIL-34 on full-length hPTP-ζ ECD-Fc
# T3 construct: also called full-length hPTP-ζ ECD-Fc; not shown: immunoglobulin Fc domain
# Protocol: as §1
# [6] = biological target: T4, human PTP-ζ (protein tyrosine phosphatase receptor type zeta) of U251 human glioblastoma cells (human, UniProt P23471 25-2315, chondroitin sulfate glycosaminoglycan chains (proteoglycan)); test: flow cytometry on U251 cells, detection with biotin-labeled anti-FLAG M2 antibody
# T4 construct: Endogenous protein on intact U251 cells (flow cytometry) or in OG-solubilized U251 membrane lysates (pull-down); long (~400 kDa), non-glycosaminoglycanylated (300 kDa) and short (220 kDa) isoforms are present; U251 cells lack CSF-1R; also called PTP-β/ζ; cell-surface PTP-ζ
# [7] = biological target: T2, human CSF-1R extracellular domain fused …; test: SPR (Biacore T100), hCSF-1R-ECD-Fc captured on Protein A, hCSF-1 as analyte; hCSF-1 on hCSF-1R-ECD-Fc
# Protocol: as §1
# [8] = biological target: T4, human PTP-ζ (protein tyrosine …); test: flow cytometry on U251 cells, detection with biotin-labeled anti-FLAG M2 antibody, at concentrations equivalent to IL-34-FLAG
# [9] = biological target: T3, human PTP-ζ extracellular domain fused …; test: SPR (Biacore 3000), hPTP-ζ ECD-Fc immobilized on CM5 chip, hTN-R as analyte, steady state model; TN-R with hPTP-ζ ECD-Fc
# Protocol: as §1
# T2 sequence (P07333 20-517): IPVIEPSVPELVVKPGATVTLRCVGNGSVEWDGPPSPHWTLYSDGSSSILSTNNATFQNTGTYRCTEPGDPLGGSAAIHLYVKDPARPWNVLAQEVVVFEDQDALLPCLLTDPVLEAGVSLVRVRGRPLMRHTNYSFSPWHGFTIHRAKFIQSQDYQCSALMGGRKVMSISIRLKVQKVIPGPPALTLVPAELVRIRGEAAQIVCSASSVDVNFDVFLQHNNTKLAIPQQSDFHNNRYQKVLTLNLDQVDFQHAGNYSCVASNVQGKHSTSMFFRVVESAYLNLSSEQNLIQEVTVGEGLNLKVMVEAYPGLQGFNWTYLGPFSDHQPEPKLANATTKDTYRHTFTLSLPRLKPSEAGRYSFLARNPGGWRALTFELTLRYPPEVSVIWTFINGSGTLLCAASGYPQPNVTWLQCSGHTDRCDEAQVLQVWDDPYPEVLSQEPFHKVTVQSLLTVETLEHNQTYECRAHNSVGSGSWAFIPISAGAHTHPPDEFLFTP
# T4 sequence (P23471 25-2315 limits assumed): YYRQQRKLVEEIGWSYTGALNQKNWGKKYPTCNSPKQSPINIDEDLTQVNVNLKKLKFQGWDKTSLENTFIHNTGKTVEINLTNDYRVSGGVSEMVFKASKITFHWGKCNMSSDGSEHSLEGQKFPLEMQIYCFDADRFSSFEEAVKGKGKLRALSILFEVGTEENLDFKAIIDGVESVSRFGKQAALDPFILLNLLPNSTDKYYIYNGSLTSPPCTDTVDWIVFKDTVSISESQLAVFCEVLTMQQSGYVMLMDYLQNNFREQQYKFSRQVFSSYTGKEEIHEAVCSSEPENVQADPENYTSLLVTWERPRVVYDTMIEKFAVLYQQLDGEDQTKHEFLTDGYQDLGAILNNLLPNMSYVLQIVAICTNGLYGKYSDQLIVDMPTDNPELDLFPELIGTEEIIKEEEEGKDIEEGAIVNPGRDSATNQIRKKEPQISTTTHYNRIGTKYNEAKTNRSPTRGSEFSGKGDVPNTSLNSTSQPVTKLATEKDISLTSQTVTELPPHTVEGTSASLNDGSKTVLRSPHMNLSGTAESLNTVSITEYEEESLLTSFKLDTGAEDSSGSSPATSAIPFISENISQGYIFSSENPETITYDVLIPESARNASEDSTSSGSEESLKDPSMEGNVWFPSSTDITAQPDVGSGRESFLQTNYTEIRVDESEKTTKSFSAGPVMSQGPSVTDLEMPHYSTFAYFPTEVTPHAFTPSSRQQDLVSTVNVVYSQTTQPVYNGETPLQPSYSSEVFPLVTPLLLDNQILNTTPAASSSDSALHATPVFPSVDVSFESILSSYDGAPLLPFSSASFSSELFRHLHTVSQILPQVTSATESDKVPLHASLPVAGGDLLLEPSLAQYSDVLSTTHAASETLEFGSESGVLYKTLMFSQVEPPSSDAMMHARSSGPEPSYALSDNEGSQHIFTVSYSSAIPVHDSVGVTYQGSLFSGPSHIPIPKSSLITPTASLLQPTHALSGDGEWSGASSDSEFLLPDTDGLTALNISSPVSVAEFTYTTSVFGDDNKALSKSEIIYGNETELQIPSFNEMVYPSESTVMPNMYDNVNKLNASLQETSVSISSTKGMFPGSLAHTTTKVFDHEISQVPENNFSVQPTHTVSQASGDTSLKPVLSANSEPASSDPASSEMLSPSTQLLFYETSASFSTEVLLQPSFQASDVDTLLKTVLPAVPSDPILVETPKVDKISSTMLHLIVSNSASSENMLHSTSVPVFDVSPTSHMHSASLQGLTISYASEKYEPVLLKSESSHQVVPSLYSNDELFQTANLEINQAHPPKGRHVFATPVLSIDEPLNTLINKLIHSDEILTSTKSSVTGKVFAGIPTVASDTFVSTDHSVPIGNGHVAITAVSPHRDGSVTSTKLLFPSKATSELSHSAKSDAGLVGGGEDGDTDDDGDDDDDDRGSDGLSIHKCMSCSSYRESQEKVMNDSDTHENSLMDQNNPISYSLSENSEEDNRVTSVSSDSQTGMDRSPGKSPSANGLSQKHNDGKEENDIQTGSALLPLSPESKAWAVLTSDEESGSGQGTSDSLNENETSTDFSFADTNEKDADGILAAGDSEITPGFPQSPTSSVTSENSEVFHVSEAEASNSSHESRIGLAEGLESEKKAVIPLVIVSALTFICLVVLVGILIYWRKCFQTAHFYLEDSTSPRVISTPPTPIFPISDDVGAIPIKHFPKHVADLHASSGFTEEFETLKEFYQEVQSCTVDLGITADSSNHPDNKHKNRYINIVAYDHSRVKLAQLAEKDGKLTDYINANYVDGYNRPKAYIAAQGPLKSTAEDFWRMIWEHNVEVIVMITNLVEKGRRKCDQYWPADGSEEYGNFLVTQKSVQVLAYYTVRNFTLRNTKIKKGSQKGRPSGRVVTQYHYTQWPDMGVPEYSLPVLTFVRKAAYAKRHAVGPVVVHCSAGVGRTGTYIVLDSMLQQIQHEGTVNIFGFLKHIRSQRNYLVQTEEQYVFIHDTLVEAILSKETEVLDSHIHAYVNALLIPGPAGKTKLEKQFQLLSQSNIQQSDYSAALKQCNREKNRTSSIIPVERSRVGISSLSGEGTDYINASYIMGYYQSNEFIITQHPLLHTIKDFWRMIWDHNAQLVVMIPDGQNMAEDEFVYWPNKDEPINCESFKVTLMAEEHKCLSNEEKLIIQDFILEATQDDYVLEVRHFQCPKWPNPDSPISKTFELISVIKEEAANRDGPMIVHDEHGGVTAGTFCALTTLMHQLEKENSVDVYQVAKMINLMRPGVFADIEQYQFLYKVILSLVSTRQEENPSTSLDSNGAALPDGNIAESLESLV
# human PTP-ζ (protein tyrosine phosphatase receptor type zeta) of U251 human glioblastoma cells (human), sequence (P23471 25-2315 limits assumed): as above
# T3 sequence (P23471 25-1636): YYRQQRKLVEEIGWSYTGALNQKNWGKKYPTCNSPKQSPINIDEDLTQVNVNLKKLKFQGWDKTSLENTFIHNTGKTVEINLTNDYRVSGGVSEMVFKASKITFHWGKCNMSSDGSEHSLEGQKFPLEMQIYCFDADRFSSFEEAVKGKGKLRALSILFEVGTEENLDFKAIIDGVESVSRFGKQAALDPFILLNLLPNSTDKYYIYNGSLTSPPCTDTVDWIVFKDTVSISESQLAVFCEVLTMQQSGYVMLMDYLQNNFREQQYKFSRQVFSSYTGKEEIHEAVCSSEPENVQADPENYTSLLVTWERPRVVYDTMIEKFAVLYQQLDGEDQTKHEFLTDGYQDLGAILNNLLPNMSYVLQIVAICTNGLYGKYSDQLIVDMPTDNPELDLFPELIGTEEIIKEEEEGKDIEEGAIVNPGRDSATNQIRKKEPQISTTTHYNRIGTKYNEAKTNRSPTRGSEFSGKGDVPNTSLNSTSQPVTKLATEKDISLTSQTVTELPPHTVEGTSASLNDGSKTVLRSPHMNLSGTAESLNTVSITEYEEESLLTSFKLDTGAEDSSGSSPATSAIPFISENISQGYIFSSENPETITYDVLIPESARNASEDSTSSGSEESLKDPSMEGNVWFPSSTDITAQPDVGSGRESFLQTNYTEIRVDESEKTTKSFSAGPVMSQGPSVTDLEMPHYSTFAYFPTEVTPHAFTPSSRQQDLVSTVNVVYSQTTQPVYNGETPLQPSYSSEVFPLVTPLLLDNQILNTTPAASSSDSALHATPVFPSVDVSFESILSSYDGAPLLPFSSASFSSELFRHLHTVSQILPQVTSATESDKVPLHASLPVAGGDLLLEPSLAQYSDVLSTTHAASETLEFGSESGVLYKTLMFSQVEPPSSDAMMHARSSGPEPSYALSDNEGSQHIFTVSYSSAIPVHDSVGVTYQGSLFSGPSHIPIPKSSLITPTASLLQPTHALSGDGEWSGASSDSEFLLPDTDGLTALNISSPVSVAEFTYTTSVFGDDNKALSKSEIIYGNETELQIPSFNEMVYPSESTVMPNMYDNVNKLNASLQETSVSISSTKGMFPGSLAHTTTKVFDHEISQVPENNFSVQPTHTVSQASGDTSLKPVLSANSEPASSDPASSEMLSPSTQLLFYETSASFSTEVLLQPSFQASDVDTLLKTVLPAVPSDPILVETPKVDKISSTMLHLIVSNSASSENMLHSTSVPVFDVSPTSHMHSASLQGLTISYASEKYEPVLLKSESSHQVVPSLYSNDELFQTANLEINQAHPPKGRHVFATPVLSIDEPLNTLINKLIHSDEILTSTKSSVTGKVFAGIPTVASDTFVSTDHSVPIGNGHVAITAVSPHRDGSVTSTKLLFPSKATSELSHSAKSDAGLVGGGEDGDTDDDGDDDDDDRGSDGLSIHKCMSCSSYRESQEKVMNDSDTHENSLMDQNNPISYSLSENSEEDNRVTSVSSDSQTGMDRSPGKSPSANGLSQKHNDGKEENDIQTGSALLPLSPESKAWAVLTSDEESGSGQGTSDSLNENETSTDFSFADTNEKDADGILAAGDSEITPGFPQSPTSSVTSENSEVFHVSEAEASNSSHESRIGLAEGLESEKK
molecule,measurement,setting,value
human pleiotrophin (hPTN) (from UniProt P21246 33-168) (ligand),clonogenicity of U251 cells (colony count at 8 days),[1],53%
same,"wound healing of U251 monolayer, time taken for 50% wound closure (t50)",[1],10 h
"human IL-34 (interleukin-34) (ligand, UniProt Q6ZMJ4 21-242, looked up, biotinylated with EZ-Link Sulfo-NHS-LC-LC-Biotin in the pull-down and flow cytometry assays; unlabelled in SPR, Purified protein; also called hIL-34; biotinylated hIL-34) NEPLEMWPLTQNEECTVTGFLRDKLQYRSRLQYMKHYFPINYKISVPYEGVFRIANVTRLQRAQVSERELRYLWVLVSLSATESVQDVLLEGHPSWKYLQEVETLLLNVQQGLTDVEVSPKVESVLSLLNAPGPNLKLVRPKALLDNCFRVMELLYCSCCKQSSVLNWQDCEVPSPQSCSPEPSLQYAATQLYPPPPWSPSSPPHSTGSVRPVRAQGEGLLP",Kd,[2],3000 nM
same,Kd,[3],~0.001 nM
same,Kd,[4],~1000 nM
same,Kd,[5],~100 nM
"FLAG-tagged human IL-34 (ligand, UniProt Q6ZMJ4 21-242, looked up, also called IL-34-FLAG; not shown: FLAG tag) NEPLEMWPLTQNEECTVTGFLRDKLQYRSRLQYMKHYFPINYKISVPYEGVFRIANVTRLQRAQVSERELRYLWVLVSLSATESVQDVLLEGHPSWKYLQEVETLLLNVQQGLTDVEVSPKVESVLSLLNAPGPNLKLVRPKALLDNCFRVMELLYCSCCKQSSVLNWQDCEVPSPQSCSPEPSLQYAATQLYPPPPWSPSSPPHSTGSVRPVRAQGEGLLP",binding result,[6],binds
"human recombinant CSF-1 (colony stimulating factor-1) (ligand, UniProt P09603 36-253, looked up, also called hCSF-1) SEYCSHMIGSGHLQSLQRLIDSQMETSCQITFEFVDQEQLKDPVCYLKKAFLLVQDIMEDTMRFRDNTPNAIAIVQLQELSLRLKSCFTKDYEEHDKACVRTFYETPLQLLEKVKNVFNETKNLLDKDWNIFSKNCNNSFAECSSQDVVTKPDCNCLYPKAIPSSDPASVSPHQPLAPSMAPVAGLTWEDSEGTEGSSLLPGEQPLHTVDPGSAKQRP",Kd,[7],~0.01 nM
"FLAG-tagged human CSF-1 (ligand, UniProt P09603 33-255, looked up, also called CSF-1-FLAG; not shown: FLAG tag) EEVSEYCSHMIGSGHLQSLQRLIDSQMETSCQITFEFVDQEQLKDPVCYLKKAFLLVQDIMEDTMRFRDNTPNAIAIVQLQELSLRLKSCFTKDYEEHDKACVRTFYETPLQLLEKVKNVFNETKNLLDKDWNIFSKNCNNSFAECSSQDVVTKPDCNCLYPKAIPSSDPASVSPHQPLAPSMAPVAGLTWEDSEGTEGSSLLPGEQPLHTVDPGSAKQRPPR",binding result,[8],no binding
B1,Kd,[9],~10 nM
